{
  "source": "paper PMC8844822",
  "about": "“SARM1 is a multi-functional NAD(P)ase with prominent base exchange activity, all regulated bymultiple physiologically relevant NAD metabolites” (iScience, 2022)",
  "key": {"[1]": {"substrate": "NC(=O)c1ccc[n+]([C@@H]2O[C@H](COP(=O)([O-])OP(=O)(O)OC[C@H]3O[C@@H](n4cnc5c(N)ncnc54)[C@H](O)[C@@H]3O)[C@@H](O)[C@H]2O)c1", "test": "purified protein, by the assay type", "details": "other: Aplysia cyclase, substrate as labelled, pH 7.5", "protocol": "hSARM1 species were routinely assayed by the NAD/NADH-Glo^TM Assay (Promega) while both Aplysia cyclase and CD38 were assayed by fluorometry using ϵNAD ([Orsomando et al., 2000]). […] Other reagents used in addition to, or in place of those above are detailed in text or in figure legends, for example metal ions, free bases, dinucleotide analogues, mononucleotides, and ribosides. Assays were all carried out at 25°C except for temperature studies. Reactions were stopped by HClO4/K2CO3 and analysed by C18-HPLC as reported ([Mori et al., 2014]). Only the acid labile NADH and NADPH were treated with 1 N NaOH and neutralized using 1:1 vol of 1.73 M KH2CO3 while the highly hydrophobic metabolites vacor, VAD, VMN and VR, were analysed by a modified C18-HPLC method ([Buonvicino et al., 2018]). Reaction products were quantified from peak areas (see Figure 2A) based on coelution with standards (except for cyclic products from NAD analogues that were not available and were attributed based on UV-spectra and retention times as predicted). Rates were calculated as follows. Hydrolysis and cyclization were measured from product generation from the respective individual dinucleotide substrate used, e.g., free and cyclic ADP-ribosyl moieties from NAD (Figure 1B). A basal value for hydrolysis/cyclization was taken as sum of these latter two products. […]"}, "[2]": {"substrate": "NC(=O)c1ccc[n+]([C@@H]2O[C@H](COP(=O)([O-])OP(=O)(O)OC[C@H]3O[C@@H](n4cnc5c(N)ncnc54)[C@H](O)[C@@H]3O)[C@@H](O)[C@H]2O)c1", "test": "NAD(P)ase activity by HPLC (kinetics, substrates, metal ions)", "assay_type": "biochemical, human", "details": "other: hSARM1 full length", "protocol": "(§1) hSARM1 species were routinely assayed by the NAD/NADH-Glo^TM Assay (Promega) while both Aplysia cyclase and CD38 were assayed by fluorometry using ϵNAD ([Orsomando et al., 2000]). […] Other reagents used in addition to, or in place of those above are detailed in text or in figure legends, for example metal ions, free bases, dinucleotide analogues, mononucleotides, and ribosides. Assays were all carried out at 25°C except for temperature studies. Reactions were stopped by HClO4/K2CO3 and analysed by C18-HPLC as reported ([Mori et al., 2014]). Only the acid labile NADH and NADPH were treated with 1 N NaOH and neutralized using 1:1 vol of 1.73 M KH2CO3 while the highly hydrophobic metabolites vacor, VAD, VMN and VR, were analysed by a modified C18-HPLC method ([Buonvicino et al., 2018]). Reaction products were quantified from peak areas (see Figure 2A) based on coelution with standards (except for cyclic products from NAD analogues that were not available and were attributed based on UV-spectra and retention times as predicted). Rates were calculated as follows. Hydrolysis and cyclization were measured from product generation from the respective individual dinucleotide substrate used, e.g., free and cyclic ADP-ribosyl moieties from NAD (Figure 1B). A basal value for hydrolysis/cyclization was taken as sum of these latter two products. In addition to that value, base exchange or transglycosidation was calculated from the expected dinucleotide analog formed in the presence of the corresponding free base, e.g., AcPyrAD from AcPyr and NAD.\n(§2) The kinetic parameters were calculated from initial rates obtained from replicates via best-fitting analysis using the following Equation 1 for CD38 and Aplysia cyclase, or Equation 2 for hSARM1 SAM-TIR, or Equation 3 for hSARM1 full length(Equation 1) V =Vmax[S]/Km+[S]"}, "[3]": {"substrate": "NC(=O)c1ccc[n+]([C@@H]2O[C@H](COP(=O)([O-])OP(=O)(O)OC[C@H]3O[C@@H](n4cnc5c(N)ncnc54)[C@H](O)[C@@H]3O)[C@@H](O)[C@H]2O)c1", "test": "purified protein, by the assay type", "assay_type": "biochemical", "details": "other: hSARM1 SAM-TIR, pH 7.5", "protocol": "as §1, §2"}, "[4]": {"details": "re-elaborated from Table 1, pH 7.5"}},
  "data": [
    {"protein": "Aplysia californica ADP ribosyl cyclase (Aplysia californica) (protein) IVPTRELENVFLGRCKDYEITRYLDILPRVRSDCSALWKDFFKAFSFKNPCDLDLGSYKDFFTSAQQQLPKNKVMFWSGVYDEAHDYANTGRKYITLEDTLPGYMLNSLVWCGQRANPGFNEKVCPDFKTCPVQARESFWGMASSSYAHSAEGEVTYMVDGSNPKVPAYRPDSFFGKYELPNLTNKVTRVKVIVLHRLGEKIIEKCGAGSLLDLEKLVKAKHFAFDCVENPRAVLFLLCSDNPNARECRLAKRFYRIA", "values": [
      {"measurement": "Km", "setting": "[1]", "value": "212 ± 13.7", "unit": "µM"},
      {"measurement": "Vmax", "setting": "[1]", "value": "51.4 ± 1.24", "unit": "µmol/min/mg"}
    ]},
    {"protein": "human SARM1 full length (Homo sapiens) (protein, Human recombinant SARM1 full length proteins (wild-type and E642A mutant); made in house) LAVPGPDGGGGTGPWWAAGGRGPREVSPGAGTEVQDALERALPELQQALSALKQAGGARAVGAGLAEVFQLVEEAWLLPAVGREVAQGLCDAIRLDGGLDLLLRLLQAPELETRVQAARLLEQILVAENRDRVARIGLGVILNLAKEREPVELARSVAGILEHMFKHSEETCQRLVAAGGLDAVLYWCRRTDPALLRHCALALGNCALHGGQAVQRRMVEKRAAEWLFPLAFSKEDELLRLHACLAVAVLATNKEVEREVERSGTLALVEPLVASLDPGRFARCLVDASDTSQGRGPDDLQRLVPLLDSNRLEAQCIGAFYLCAEAAIKSLQGKTKVFSDIGAIQSLKRLVSYSTNGTKSALAKRALRLLGEEVPRPILPSVPSWKEAEVQTWLQQIGFSKYCESFREQQVDGDLLLRLTEEELQTDLGMKSGITRKRFFRELTELKTFANYSTCDRSNLADWLGSLDPRFRQYTYGLVSCGLDRSLLHRVSEQQLLEDCGIHLGVHRARILTAAREMLHSPLPCTGGKPSGDTPDVFISYRRNSGSQLASLLKVHLQLHGFSVFIDVEKLEAGKFEDKLIQSVMGARNFVLVLSPGALDKCMQDHDCKDWVHKEIVTALSCGKNIVPIIDGFEWPEPQVLPEDMQAVLTFNGIKWSHEYQEATIEKIIRFLQGRSSRDSSAGSDTSLEGAAPMGPT", "values": [
      {"measurement": "Km", "setting": "[2]; no NMN, pH 7.5", "value": "30.3 ± 5.18", "unit": "µM"},
      {"measurement": "Vmax", "setting": "[2]; no NMN, pH 7.5", "value": 0.0224, "unit": "µmol/min/mg"},
      {"measurement": "kcat", "setting": "[2]; [4]", "value": "0.03 ± 0.007", "unit": "s⁻¹"},
      {"measurement": "kcat/Km", "setting": "[2]; [4]", "value": "1000 ± 350", "unit": "M⁻¹ s⁻¹"}
    ]},
    {"protein": "hSARM1 SAM-TIR (Homo sapiens) (protein, made in house) VPSWKEAEVQTWLQQIGFSKYCESFREQQVDGDLLLRLTEEELQTDLGMKSGITRKRFFRELTELKTFANYSTCDRSNLADWLGSLDPRFRQYTYGLVSCGLDRSLLHRVSEQQLLEDCGIHLGVHRARILTAAREMLHSPLPCTGGKPSGDTPDVFISYRRNSGSQLASLLKVHLQLHGFSVFIDVEKLEAGKFEDKLIQSVMGARNFVLVLSPGALDKCMQDHDCKDWVHKEIVTALSCGKNIVPIIDGFEWPEPQVLPEDMQAVLTFNGIKWSHEYQEATIEKIIRFLQGRSSRDSSAGSDTSLEGAAPMGPT", "values": [
      {"measurement": "Km", "setting": "[3]", "value": "69.5 ± 2.31", "unit": "µM"},
      {"measurement": "Vmax", "setting": "[3]", "value": 0.723, "unit": "µmol/min/mg"},
      {"measurement": "kcat", "setting": "[3]", "value": "0.448 ± 0.009", "unit": "s⁻¹"},
      {"measurement": "kcat/Km", "setting": "[3]", "value": "6500 ± 350", "unit": "M⁻¹ s⁻¹"}
    ]}
  ]
}
